Test results published in patent US20220162322A1.

Tests used:
[1] = biological target: BDCA-2 (CLEC4C, CD303) on human plasmacytoid dendritic cells (purified pDC or pDC within PBMC) (human) (UniProt Q8WTT0); assay: cell-based or functional assay
[2] = biological target: human BDCA-2-Fc (hIgG1-Fc-hBDCA-2) (human); assay: ELISA on plate-coated human BDCA2-Fc
[3] = biological target: human BDCA-2-Fc (hIgG1-Fc-hBDCA-2) (human); assay: SPR (BIAcore T200), huBDCA2-Fc immobilised on CM5 chip, mAb injected

Sequence of BDCA-2 (CLEC4C, CD303) on human plasmacytoid dendritic cells (purified pDC or pDC within PBMC) (human) (Q8WTT0 whole entry): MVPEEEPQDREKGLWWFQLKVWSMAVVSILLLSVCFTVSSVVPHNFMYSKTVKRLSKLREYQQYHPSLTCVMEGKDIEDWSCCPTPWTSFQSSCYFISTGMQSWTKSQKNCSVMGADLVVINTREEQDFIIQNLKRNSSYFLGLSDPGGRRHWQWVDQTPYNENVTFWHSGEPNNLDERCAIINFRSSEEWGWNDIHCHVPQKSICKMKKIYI
Sequence of human BDCA-2-Fc (hIgG1-Fc-hBDCA-2) (human) (chain, as listed by the source limits assumed): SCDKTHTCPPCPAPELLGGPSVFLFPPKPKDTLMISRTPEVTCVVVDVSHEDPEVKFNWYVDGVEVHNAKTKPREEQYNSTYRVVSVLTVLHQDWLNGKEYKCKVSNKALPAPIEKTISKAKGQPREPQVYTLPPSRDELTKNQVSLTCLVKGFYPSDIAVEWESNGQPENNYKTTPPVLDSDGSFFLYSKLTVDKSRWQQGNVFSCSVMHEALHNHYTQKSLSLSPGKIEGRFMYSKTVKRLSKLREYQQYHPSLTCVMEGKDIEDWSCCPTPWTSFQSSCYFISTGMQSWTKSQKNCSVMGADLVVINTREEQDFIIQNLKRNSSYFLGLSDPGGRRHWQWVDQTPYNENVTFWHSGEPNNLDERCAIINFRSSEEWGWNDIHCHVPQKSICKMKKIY

- IC50, nM; inhibition of IFNα from ODN stimulated healthy donor PBMC [1]: 1.52 nM
- IC50, ng/ml; inhibition of IFNα from ODN stimulated healthy donor PBMC [1]: 228 ng/mL
- IC90, nM; inhibition of IFNα from ODN stimulated healthy donor PBMC [1]: 13.7 nM
- IC90, ng/ml; inhibition of IFNα from ODN stimulated healthy donor PBMC [1]: 2060 ng/mL
- EC50 [2]: 0.27 nM
- Kd [3]: 2.3 nM
Substance: anti-BDCA-2 mAb AC144 (Miltenyi Biotec, cat. no. 130-090-690) (antibody)
